B1: SOAT1 (parent)
chain: GVLILFLTFFAFLHCWLNAFAEML

Variants of: B1
Assay: protein stability index of a GFP-peptide fusion (GPS, HEK-293T) (PSI 1-6); higher = more stable
Settings: c terminus: a fixed tail appended
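Note: lentivirally expressed fusions sorted by FACS into six bins by GFP to DsRed ratio, PSI derived from sequencing read proportions per bin multiplied by bin number.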

Going from GVLILFLTFFAFLHCWLYAFAEML [N18Y] to GVLILFLTFFAFLHCWLQAFAEML [N18Q], the protein stability index rises from 2.61 to 2.81.

Compared with GVLILFLTFFAFLHCWLRAFAEML [N18R], GVLILFLTFFAFLHCWLWAFAEML [N18W] is higher in protein stability index: 2.55 for the first, 2.94 for the second.

Compared with GVLILFLTFFAFLHCWLGAFAEML [N18G], GVLILFLTFFAFLHCWLEAFAEML [N18E] is higher in protein stability index: 2.52 for the first, 3.51 for the second.

Compared with GVLILFLTFFAFLHCWLHAFAEML [N18H], GVLILFLTFFAFLHCWLLAFAEML [N18L] is higher in protein stability index: 2.92 for the first, 3.64 for the second.

Going from GVLILFLTFFAFLHCWLTAFAEML [N18T] to GVLILFLTFFAFLHCWLCAFAEML [N18C], the protein stability index falls from 3 to 1.59.

First: GVLILFLTFFAFLHCWLSAFAEML [N18S]
Second: GVLILFLTFFAFLHCWLVAFAEML [N18V]
The protein stability index of the first is higher: 2.51 for the first, 2.45 for the second.

Going from GVLILFLTFFAFLHCWLPAFAEML [N18P] to GVLILFLTFFAFLHCWLMAFAEML [N18M], the protein stability index falls from 3.85 to 2.78.

Compared with GVLILFLTFFAFLHCWLKAFAEML [N18K], GVLILFLTFFAFLHCWLIAFAEML [N18I] is higher in protein stability index: 2.48 for the first, 2.85 for the second.

Compared with GVLILFLTFFAFLHCWLDAFAEML [N18D], GVLILFLTFFAFLHCWLFAFAEML [N18F] is higher in protein stability index: 1.71 for the first, 3.51 for the second.

Compared with GVLILFLTFFAFLACWLNAFAEML [H14A], GVLILFLTFFAFLECWLNAFAEML [H14E] is higher in protein stability index: 2.22 for the first, 2.94 for the second.

Going from GVLILFLTFFAFLFCWLNAFAEML [H14F] to GVLILFLTFFAFLGCWLNAFAEML [H14G], the protein stability index rises from 1.52 to 2.45.

First: GVLILFLTFFAFLCCWLNAFAEML [H14C]
Second: GVLILFLTFFAFLLCWLNAFAEML [H14L]
The protein stability index of the first is higher: 2.17 for the first, 1.87 for the second.

Compared with GVLILFLTFFAFLICWLNAFAEML [H14I], GVLILFLTFFAFLSCWLNAFAEML [H14S] is higher in protein stability index: 1.95 for the first, 2.02 for the second.

Compared with GVLILFLTFFAFLRCWLNAFAEML [H14R], GVLILFLTFFAFLPCWLNAFAEML [H14P] is lower in protein stability index: 2.68 for the first, 2.06 for the second.

First: GVLILFLTFFAFLMCWLNAFAEML [H14M]
Second: GVLILFLTFFAFLTCWLNAFAEML [H14T]
The protein stability index of the first is higher: 2.07 for the first, 2.06 for the second.

Compared with GVLILFLTFFAFLVCWLNAFAEML [H14V], GVLILFLTFFAFLQCWLNAFAEML [H14Q] is higher in protein stability index: 1.48 for the first, 2.47 for the second.

GVLILFLTFFAFLWCWLNAFAEML [H14W] and GVLILFLTFFAFLKCWLNAFAEML [H14K] are the same in protein stability index: 2.17 for the first, 2.17 for the second.

First: GVLILFLTFFAFLYCWLNAFAEML [H14Y]
Second: GVLILFLTFFAFLDCWLNAFAEML [H14D]
The protein stability index of the first is lower: 2.09 for the first, 3.15 for the second.

First: GVLILFLTFFMFLHCWLNAFAEML [A11M]
Second: GVLILFLTFFTFLHCWLNAFAEML [A11T]
The protein stability index of the first is higher: 3.5 for the first, 3.07 for the second.

First: GVLILFLTFFWFLHCWLNAFAEML [A11W]
Second: GVLILFLTFFIFLHCWLNAFAEML [A11I]
The protein stability index of the first is lower: 1.64 for the first, 3.38 for the second.

First: GVLILFLTFFSFLHCWLNAFAEML [A11S]
Second: GVLILFLTFFVFLHCWLNAFAEML [A11V]
The protein stability index of the first is higher: 2.69 for the first, 1.88 for the second.

Compared with GVLILFLTFFRFLHCWLNAFAEML [A11R], GVLILFLTFFKFLHCWLNAFAEML [A11K] is lower in protein stability index: 3.9 for the first, 2.37 for the second.

Going from GVLILFLTFFGFLHCWLNAFAEML [A11G] to GVLILFLTFFLFLHCWLNAFAEML [A11L], the protein stability index rises from 1.15 to 1.75.

Going from GVLILFLTFFYFLHCWLNAFAEML [A11Y] to GVLILFLTFFFFLHCWLNAFAEML [A11F], the protein stability index rises from 2.09 to 2.48.

Compared with GVLILFLTFFHFLHCWLNAFAEML [A11H], GVLILFLTFFDFLHCWLNAFAEML [A11D] is higher in protein stability index: 2.31 for the first, 2.82 for the second.

Compared with GVLILFLTFFQFLHCWLNAFAEML [A11Q], GVLILFLTFFPFLHCWLNAFAEML [A11P] is higher in protein stability index: 2.55 for the first, 3.29 for the second.

Going from GVLILFLTFFAFLHMWLNAFAEML [C15M] to GVLILFLTFFAFLHYWLNAFAEML [C15Y], the protein stability index falls from 3.37 to 2.79.

Compared with GVLILFLTFFAFLHIWLNAFAEML [C15I], GVLILFLTFFAFLHFWLNAFAEML [C15F] is lower in protein stability index: 2.55 for the first, 2.27 for the second.

Going from GVLILFLTFFAFLHLWLNAFAEML [C15L] to GVLILFLTFFAFLHPWLNAFAEML [C15P], the protein stability index falls from 2.97 to 2.81.

First: GVLILFLTFFAFLHRWLNAFAEML [C15R]
Second: GVLILFLTFFAFLHWWLNAFAEML [C15W]
The protein stability index of the first is lower: 1.95 for the first, 3.12 for the second.

First: GVLILFLTFFAFLHNWLNAFAEML [C15N]
Second: GVLILFLTFFAFLHAWLNAFAEML [C15A]
The protein stability index of the first is higher: 3.02 for the first, 2.75 for the second.

Going from GVLILFLTFFAFLHTWLNAFAEML [C15T] to GVLILFLTFFAFLHKWLNAFAEML [C15K], the protein stability index rises from 2.47 to 3.47.

First: GVLILFLTFFAFLHQWLNAFAEML [C15Q]
Second: GVLILFLTFFAFLHHWLNAFAEML [C15H]
The protein stability index of the first is higher: 3.3 for the first, 1.99 for the second.

Going from GVLILFLTFFAFLHEWLNAFAEML [C15E] to GVLILFLTFFAFLHVWLNAFAEML [C15V], the protein stability index falls from 2.28 to 2.

First: GVLILFLTFFAFLHSWLNAFAEML [C15S]
Second: GVLILFLTFFAFLHGWLNAFAEML [C15G]
The protein stability index of the first is lower: 1.83 for the first, 2.01 for the second.

Going from GVLILFLTFFAFLHDWLNAFAEML [C15D] to GVLILFLTFFAFLHCWLNCFAEML [A19C], the protein stability index rises from 1.44 to 2.73.

Going from GVLILFLTFFAFLHCWLNWFAEML [A19W] to GVLILFLTFFAFLHCWLNTFAEML [A19T], the protein stability index rises from 1.73 to 2.82.

First: GVLILFLTFFAFLHCWLNYFAEML [A19Y]
Second: GVLILFLTFFAFLHCWLNIFAEML [A19I]
The protein stability index of the first is lower: 2.29 for the first, 2.76 for the second.

First: GVLILFLTFFAFLHCWLNRFAEML [A19R]
Second: GVLILFLTFFAFLHCWLNKFAEML [A19K]
The protein stability index of the first is lower: 1.64 for the first, 2.96 for the second.

Compared with GVLILFLTFFAFLHCWLNPFAEML [A19P], GVLILFLTFFAFLHCWLNDFAEML [A19D] is higher in protein stability index: 2.31 for the first, 2.85 for the second.

Going from GVLILFLTFFAFLHCWLNEFAEML [A19E] to GVLILFLTFFAFLHCWLNLFAEML [A19L], the protein stability index falls from 3.48 to 3.05.

Compared with GVLILFLTFFAFLHCWLNVFAEML [A19V], GVLILFLTFFAFLHCWLNFFAEML [A19F] is lower in protein stability index: 2.77 for the first, 1.68 for the second.

First: GVLILFLTFFAFLHCWLNNFAEML [A19N]
Second: GVLILFLTFFAFLHCWLNMFAEML [A19M]
The protein stability index of the first is lower: 2.8 for the first, 3.03 for the second.

Going from GVLILFLTFFAFLHCWLNSFAEML [A19S] to GVLILFLTFFAFLHCWLNQFAEML [A19Q], the protein stability index falls from 2.83 to 2.59.

First: GVLILFLTFFAFLHCWLNHFAEML [A19H]
Second: GVLILFLTFFAFLHCWLNGFAEML [A19G]
The protein stability index of the first is higher: 3.33 for the first, 3.14 for the second.

First: GVLILFLTFFAFLHCWMNAFAEML [L17M]
Second: GVLILFLTFFAFLHCWQNAFAEML [L17Q]
The protein stability index of the first is higher: 2.95 for the first, 2.24 for the second.

First: GVLILFLTFFAFLHCWWNAFAEML [L17W]
Second: GVLILFLTFFAFLHCWYNAFAEML [L17Y]
The protein stability index of the first is lower: 2.44 for the first, 3.42 for the second.

Reference: the supplement of paper PMC10567573
